Data reported in doi:10.1101/2023.04.12.536520, “Structural bases for the Charcot–Marie–Tooth disease induced by single amino acid substitutions of myelin protein zero” (bioRxiv, 2023).

B1: human MPZ-ECD with a C-terminal histidine-tag (ECD-His), wild type (domain or fragment)
chain: MGIVVYTDREVHGAVGSRVTLHCSFWSSEWVSDDISFTWRYQPEGGRDAISIFHYAKGQPYIDEVGTFKERIQWVGDPRWKDGSIVIHNLDYSDNGTFTCDVKNPPDIVGKTSQVTLYVFEKVPTR
notes: two artificial amino acids at the N-terminus; myelin protein zero (MPZ, P0), human, extracellular domain I1 through V121; I1 is residue 30 of the precursor P25189; linker between the ECD and the His6-tag; Non-glycosylated; also called hMPZ-ECD-His; WT; not shown: His6, C-terminal, kept
B2: human MPZ-ECD without a histidine-tag (ECD) (domain or fragment)
chain: MGIVVYTDREVHGAVGSRVTLHCSFWSSEWVSDDISFTWRYQPEGGRDAISIFHYAKGQPYIDEVGTFKERIQWVGDPRWKDGSIVIHNLDYSDNGTFTCDVKNPPDIVGKTSQVTLYVFEKV
notes: two artificial amino acids at the N-terminus; myelin protein zero (MPZ, P0), human, extracellular domain I1 through V121; I1 is residue 30 of the precursor P25189; Non-glycosylated; also called hMPZ-ECD
B3: ECD-His D46V variant (domain or fragment, human)
chain: MGIVVYTDREVHGAVGSRVTLHCSFWSSEWVSDDISFTWRYQPEGGRVAISIFHYAKGQPYIDEVGTFKERIQWVGDPRWKDGSIVIHNLDYSDNGTFTCDVKNPPDIVGKTSQVTLYVFEKVPTR
notes: two artificial amino acids at the N-terminus; myelin protein zero (MPZ, P0), human, extracellular domain I1 through V121; I1 is residue 30 of the precursor P25189; linker between the ECD and the His6-tag; CMT2-related substitution at the trans interface; not shown: His6, C-terminal, kept
B4: ECD-His A47V variant (domain or fragment, human)
chain: MGIVVYTDREVHGAVGSRVTLHCSFWSSEWVSDDISFTWRYQPEGGRDVISIFHYAKGQPYIDEVGTFKERIQWVGDPRWKDGSIVIHNLDYSDNGTFTCDVKNPPDIVGKTSQVTLYVFEKVPTR
notes: as for B3
B5: ECD-His E68V variant (domain or fragment, human)
chain: MGIVVYTDREVHGAVGSRVTLHCSFWSSEWVSDDISFTWRYQPEGGRDAISIFHYAKGQPYIDEVGTFKVRIQWVGDPRWKDGSIVIHNLDYSDNGTFTCDVKNPPDIVGKTSQVTLYVFEKVPTR
notes: two artificial amino acids at the N-terminus; myelin protein zero (MPZ, P0), human, extracellular domain I1 through V121; I1 is residue 30 of the precursor P25189; linker between the ECD and the His6-tag; CMT2-related substitution at the cis interface; not shown: His6, C-terminal, kept
B6: ECD-His R38A variant (domain or fragment, human)
chain: MGIVVYTDREVHGAVGSRVTLHCSFWSSEWVSDDISFTWAYQPEGGRDAISIFHYAKGQPYIDEVGTFKERIQWVGDPRWKDGSIVIHNLDYSDNGTFTCDVKNPPDIVGKTSQVTLYVFEKVPTR
notes: two artificial amino acids at the N-terminus; myelin protein zero (MPZ, P0), human, extracellular domain I1 through V121; I1 is residue 30 of the precursor P25189; linker between the ECD and the His6-tag; trans interface substitution; not shown: His6, C-terminal, kept
B7: ECD-His H52R variant (domain or fragment, human)
chain: MGIVVYTDREVHGAVGSRVTLHCSFWSSEWVSDDISFTWRYQPEGGRDAISIFRYAKGQPYIDEVGTFKERIQWVGDPRWKDGSIVIHNLDYSDNGTFTCDVKNPPDIVGKTSQVTLYVFEKVPTR
notes: two artificial amino acids at the N-terminus; myelin protein zero (MPZ, P0), human, extracellular domain I1 through V121; I1 is residue 30 of the precursor P25189; linker between the ECD and the His6-tag; DSS-related substitution at the trans interface; not shown: His6, C-terminal, kept
B8: ECD-His D32G variant (domain or fragment, human)
chain: MGIVVYTDREVHGAVGSRVTLHCSFWSSEWVSDGISFTWRYQPEGGRDAISIFHYAKGQPYIDEVGTFKERIQWVGDPRWKDGSIVIHNLDYSDNGTFTCDVKNPPDIVGKTSQVTLYVFEKVPTR
notes: two artificial amino acids at the N-terminus; myelin protein zero (MPZ, P0), human, extracellular domain I1 through V121; I1 is residue 30 of the precursor P25189; linker between the ECD and the His6-tag; CMT2-related substitution at the head-to-head interface; not shown: His6, C-terminal, kept
B9: ECD-His R45A variant (domain or fragment, human)
chain: MGIVVYTDREVHGAVGSRVTLHCSFWSSEWVSDDISFTWRYQPEGGADAISIFHYAKGQPYIDEVGTFKERIQWVGDPRWKDGSIVIHNLDYSDNGTFTCDVKNPPDIVGKTSQVTLYVFEKVPTR
notes: as for B6
B10: ECD-His D32N variant (domain or fragment, human)
chain: MGIVVYTDREVHGAVGSRVTLHCSFWSSEWVSDNISFTWRYQPEGGRDAISIFHYAKGQPYIDEVGTFKERIQWVGDPRWKDGSIVIHNLDYSDNGTFTCDVKNPPDIVGKTSQVTLYVFEKVPTR
notes: two artificial amino acids at the N-terminus; myelin protein zero (MPZ, P0), human, extracellular domain I1 through V121; I1 is residue 30 of the precursor P25189; linker between the ECD and the His6-tag; CMT1B-related substitution at the head-to-head interface; the recombinant protein was non-glycosylated; not shown: His6, C-terminal, kept

Molecular target: the molecule itself
Test: SEC-MALS; ECD-His injected at 52 µM; Superdex 200 Increase 10/300 GL; standard buffer (20 mM Tris-HCl pH 7.4, 100 mM NaCl); room temperature; 8-mer to monomers

Stoichiometry N, 8:
B1

Molecular target: the molecule itself
Test: SEC; free ECD or ECD-His variants; HiLoad Superdex 200 16/600 (Fig. 4A-C) or Superdex 200 Increase 10/300 (Fig. 3, Fig. S1); standard buffer (20 mM Tris-HCl pH 7.4, 100 mM NaCl); 4 °C; 8-mer to monomers

Stoichiometry N, 8:
B2
B3
B4
B5
B6
B7
B8
B9
B10
